Data taken from publication PMC3902943.

B1: S1m aptamer (60 nt) (structured_RNA)
RNA: AUGCGGCCGCCGACCAGAAUCAUGCAAGUGCGUAAGAUAGUCGCGGGUCGGCGGCCGCAU

Molecular target: streptavidin (SA) (UniProt P22629 25-183)
Experiment: EMSA

Chain of streptavidin (SA) (P22629 25-183): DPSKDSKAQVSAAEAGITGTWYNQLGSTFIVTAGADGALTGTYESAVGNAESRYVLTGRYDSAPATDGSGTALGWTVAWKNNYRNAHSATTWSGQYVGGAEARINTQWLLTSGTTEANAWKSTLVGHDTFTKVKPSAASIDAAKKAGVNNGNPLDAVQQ

| Binder | Kd |
| --- | --- |
| ACCGACCAGAAUCAUGCAAGUGCGUAAGAUAGUCGCGGGCCGGG (structured_RNA) [S1 aptamer (44 nt)] | 59 nM |
| B1 | 29 nM |
